The values below come from article doi:10.1101/2020.12.02.408153 (bioRxiv, 2020).

This assay concerns the target SARS-CoV-2 open reading frame (ORF) 8 (SARS-CoV-2, UniProt P0DTC8 16-121). Kind of assay: SPR.

Chain of SARS-CoV-2 open reading frame (ORF) 8 (P0DTC8 16-121): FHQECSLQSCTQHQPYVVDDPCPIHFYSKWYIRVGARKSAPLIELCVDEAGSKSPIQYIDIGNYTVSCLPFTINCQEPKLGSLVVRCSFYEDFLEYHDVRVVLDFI

The Kd is the free concentration of one partner at which half of the binding sites on the other are occupied at equilibrium, for simple one-to-one binding. A low value points to higher affinity. As for LLGDFFRKSKEKIGKEFKRIVQRIKDFLRNLVPRTES [LL-37], the Kd came to 290 nM.
